Values joined by “and” are separate entries in the source; they are usually repeats but may differ in a detail not shown here. Identical values can stand only once. Blank lines part the entries; values can stand above or below the binder they belong to.
Experiments:
[1] = target: T1, human CD28 on human T cells (human, UniProt P10747 19-152); assay: flow cytometry, human CD4+ T cells
T1 construct: Endogenous CD28 on primary human CD4+ and CD8+ T cells; also called hCD28
Procedure: (§1) After incubation, the cells were washed twice with cold PBS containing 1% filtered FBS and a PE-conjugated or Alexa647-conjugated anti-human secondary antibody was added to the MUC16 expressing cells or Human/Cyno T cells, respectively, and incubated for an additional 30 minutes. Live/dead dye was added to Human and Cynomolgus T cells incubations. Wells containing no antibody or secondary only were used as a control.
(§2) After incubation with Human or Cynomolgus T cells, cells were washed, and stained with a cocktail of anti-CD2, ant-CD16, anti-CD4, and anti-CD8 antibodies in Brilliant Stain Buffer for an extra 20 min incubation at 4° C. After wash, cells were re-suspended in 200 μL cold PBS containing 1% filtered FBS, gated in a Live/CD2+/CD4+/CD16− or Live/CD2+/CD8+/CD16− gate and analyzed by Flow cytometry on a BD FACS LSR-Fortessa-X20.

[2] = target: T2, cynomolgus CD28 on cynomolgus T cells (cynomolgus monkey, UniProt Q0PDN3 19-220); assay: flow cytometry, cynomolgus CD8+ T cells
T2 construct: whole, on cells
Procedure: as §1, §2

[3] = target: T1, human CD28 on human T cells; assay: cell-based or functional assay
[4] = target: T2, cynomolgus CD28 on cynomolgus T cells; assay: flow cytometry, cynomolgus CD4+ T cells
Procedure: as §1, §2

[5] = target: T1, human CD28 on human T cells; assay: flow cytometry, human CD8+ T cells
Procedure: as §1, §2

[6] = target: T1, human CD28 on human T cells; assay: cell-based or functional assay; remark: listed apart in the source
hCD28.mmh = target: T3, hCD28.mmh (human); assay: SPR (Biacore), 37 C, antibody captured by anti-human Fc, hCD28.mmh injected
T3 construct: also called hCD28 with C-term myc-myc-6xHis tag; human CD28 ecto domain (N19-P152) having a myc-myc-his tag
Procedure: (§3) The dissociation of bound hMUC16, hCD28, and mCD28 reagents was monitored for 10 minutes in HBS-ET running buffer. Association (kₐ) and dissociation (kd) rate constants were determined by fitting the real-time binding sensorgrams to a 1:1 binding model with mass transport limitation using Scrubber evaluation software version 2.0c. Binding dissociation equilibrium constants (KD) and dissociative half-lives (t½) were calculated from the kinetic rate constants as:

hMUC16.mmh = target: T4, hMUC16.mmh (human); assay: SPR (Biacore), 37 C, antibody captured by anti-human Fc, hMUC16.mmh injected
T4 construct: also called hMUC16 with C-term myc-myc-6xHis tag; human MUC16 membrane proximal domain (P13810-P14451) having a myc-myc-his tag
T4 chain: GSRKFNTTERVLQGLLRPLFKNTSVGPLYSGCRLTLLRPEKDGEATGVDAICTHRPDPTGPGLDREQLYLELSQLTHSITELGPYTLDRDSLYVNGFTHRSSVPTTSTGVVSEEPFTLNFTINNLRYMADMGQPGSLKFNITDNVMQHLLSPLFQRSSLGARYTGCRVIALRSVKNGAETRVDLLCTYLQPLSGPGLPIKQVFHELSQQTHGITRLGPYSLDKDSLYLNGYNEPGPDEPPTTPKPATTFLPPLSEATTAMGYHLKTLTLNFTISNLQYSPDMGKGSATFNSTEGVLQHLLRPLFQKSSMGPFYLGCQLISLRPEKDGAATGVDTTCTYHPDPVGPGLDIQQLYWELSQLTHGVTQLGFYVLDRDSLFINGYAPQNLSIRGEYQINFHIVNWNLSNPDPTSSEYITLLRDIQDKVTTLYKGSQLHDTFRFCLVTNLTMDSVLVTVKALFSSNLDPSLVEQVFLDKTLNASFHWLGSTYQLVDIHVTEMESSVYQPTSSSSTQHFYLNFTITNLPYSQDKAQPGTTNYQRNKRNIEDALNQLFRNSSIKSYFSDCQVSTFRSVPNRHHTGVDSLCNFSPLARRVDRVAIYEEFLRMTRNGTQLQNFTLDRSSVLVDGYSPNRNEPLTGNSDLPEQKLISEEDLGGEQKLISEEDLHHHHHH
Procedure: as §3

B2: Parental 1 hCD28 (for bs32897D) (antibody, V domains shown)
VH: EVQLVESGGGLVQPGGSLRLSCAASGFTFSRNNMHWVRQAPGKGLEYVSGISSNGGRTYYADSVKGRFTISRDNSKNTLYLQMGGLRAADMAVYFCTRDDELLSFDYWGQGTLVTVSS
VL: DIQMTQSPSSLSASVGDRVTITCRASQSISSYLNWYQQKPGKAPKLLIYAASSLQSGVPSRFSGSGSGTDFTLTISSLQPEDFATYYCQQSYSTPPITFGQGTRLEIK
- IL-2 release from primary human CD4+ T cells, fold induction, OVCAR3 target cells, 5 nM hIgG4 isotype control [3]: 1.1 fold
- IL-2 release from primary human CD4+ T cells, fold induction, PEO-1 target cells, 5 nM hIgG4 isotype control [3]: 1.3 fold
- IL-2 release from primary human CD4+ T cells, fold induction, OVCAR3 target cells, 5 nM REGN4018 [6]: 1.58 fold
- IL-2 release from primary human CD4+ T cells, fold induction, PEO-1 target cells, 5 nM REGN4018 [6]: 1.42 fold

B4: Parental 2 hCD28 (for bs24963D) (antibody, V domains shown)
VH: QVQLQESGPGLVKPSETLSLTCTVSGGSISSYYWSWIRQPPGKGLEWIGYIYYSGITHYNPSLKSRVTISVDTSKIQFSLKLSSVTAADTAVYYCARWGVRRDYYYYGMDVWGQGTTVTVSS
VL: not shown
- IL-2 release from primary human CD4+ T cells, fold induction, OVCAR3 target cells, 5 nM hIgG4 isotype control [3]: 1.12 fold
- IL-2 release from primary human CD4+ T cells, fold induction, PEO-1 target cells, 5 nM hIgG4 isotype control [3]: 1.03 fold
- IL-2 release from primary human CD4+ T cells, EC50, PEO-1 target cells, 5 nM REGN4018 [6]: 0.107 nM
- IL-2 release from primary human CD4+ T cells, fold induction, OVCAR3 target cells, 5 nM REGN4018 [6]: 2.46 fold
- IL-2 release from primary human CD4+ T cells, fold induction, PEO-1 target cells, 5 nM REGN4018 [6]: 2.05 fold

Further lines, results first:

- EC50 [1]: 9160 nM
- EC50 [2]: 3020 nM
- IL-2 release from primary human CD4+ T cells, fold induction, OVCAR3 target cells, 5 nM hIgG4 isotype control [3]: 1.06 fold
- IL-2 release from primary human CD4+ T cells, fold induction, PEO-1 target cells, 5 nM hIgG4 isotype control [3]: 1.12 fold
- EC50 [4]: 5700 nM
- EC50 [5]: 7580 nM
- IL-2 release from primary human CD4+ T cells, EC50, OVCAR3 target cells, 5 nM REGN4018 [6]: 0.607 nM
- IL-2 release from primary human CD4+ T cells, fold induction, OVCAR3 target cells, 5 nM REGN4018 [6]: 5.63 fold
- IL-2 release from primary human CD4+ T cells, fold induction, PEO-1 target cells, 5 nM REGN4018 [6]: 5.22 fold
B1: bs32897D (bispecific antibody, V domains shown)
VH 1: B2 VH
VH 2: QVQLVESGGGLVKPGGSLRLSCAASGFTFRDYSMSWIRQAPGKGLEWVSYVTFFNSAIYYADSVKGRFTISRDNAKNSLYLQMNSLRAEDTAVYYCAREREPIVGGFDYWGQGTLVTVSS
VL: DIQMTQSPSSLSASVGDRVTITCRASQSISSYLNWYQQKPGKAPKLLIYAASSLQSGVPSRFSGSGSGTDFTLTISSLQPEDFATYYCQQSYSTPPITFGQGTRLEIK
notes: also called anti-MUC16xCD28

- Kd (hCD28.mmh): 165 nM
- T½ (hCD28.mmh): 2.1 min
- koff (hCD28.mmh): 0.00538 s⁻¹
- kon (hCD28.mmh): 32700 M⁻¹ s⁻¹
- EC50 [1]: 261 nM
- EC50 [2]: 122 nM
- IL-2 release from primary human CD4+ T cells, fold induction, OVCAR3 target cells, 5 nM hIgG4 isotype control [3]: 1.33 fold
- IL-2 release from primary human CD4+ T cells, fold induction, PEO-1 target cells, 5 nM hIgG4 isotype control [3]: 1.12 fold
- EC50 [4]: 203 nM
- EC50 [5]: 253 nM
- Kd (hMUC16.mmh): 0.933 nM and 0.912 nM
- T½ (hMUC16.mmh): 53.1 min and 28 min
- koff (hMUC16.mmh): 0.000412 s⁻¹ and 0.000218 s⁻¹
- kon (hMUC16.mmh): 441000 M⁻¹ s⁻¹ and 238000 M⁻¹ s⁻¹
- IL-2 release from primary human CD4+ T cells, EC50, OVCAR3 target cells, 5 nM REGN4018 [6]: 0.401 nM
- IL-2 release from primary human CD4+ T cells, EC50, PEO-1 target cells, 5 nM REGN4018 [6]: 0.996 nM
- IL-2 release from primary human CD4+ T cells, fold induction, OVCAR3 target cells, 5 nM REGN4018 [6]: 5.32 fold
- IL-2 release from primary human CD4+ T cells, fold induction, PEO-1 target cells, 5 nM REGN4018 [6]: 10.9 fold
B3: bs24963D (bispecific antibody, IgG4, V domains shown)
VH 1: B4 VH
VH 2: EVQLVESGGGLEQPGRSLRLSCTASGFAFGDHTMSWVRQAPGKGLEWVGFIRSRAYGGTTEYAASVKGRFTISRDDSKSIAYLQMDSLKTEDTAVYYCTSGGYDSSLHYYYYYHGMDVWGRGTTVTVSS
VL: not shown
notes: Two different heavy chains pair with a common light chain; also called REGN5668; anti-MUC16xCD28
